Test results reported in US20150196651A1 (published 2015).
Numbered stars: 1 amine (or outer) side, 2 acyl side, 3 side chain; on linkers, the order of the positions; unused ones are H or OH. Square brackets hold non-standard residues; d marks the D form. Side chains are listed from the residue outwards. Ends that are not written are not given here. * marks the point of attachment. γGlu = O=C(O)[C@H](CCC(=O)[*:2])N[*:1]; Palmitoyl = CCCCCCCCCCCCCCCC(=O)*; Myristoyl = CCCCCCCCCCCCCC(=O)*; NMeA = CN[C@@H](C)C(=O)O

T1: rat PrRP receptor in RC-4B/C cells (rat, UniProt Q64121 1-370)
T1 construct: whole, on cells; endogenous receptor of RC-4B/C cells (ATCC); also called rat receptor; GPR10 receptor expressed in rat hypophyseal cells
T1 sequence (looked up): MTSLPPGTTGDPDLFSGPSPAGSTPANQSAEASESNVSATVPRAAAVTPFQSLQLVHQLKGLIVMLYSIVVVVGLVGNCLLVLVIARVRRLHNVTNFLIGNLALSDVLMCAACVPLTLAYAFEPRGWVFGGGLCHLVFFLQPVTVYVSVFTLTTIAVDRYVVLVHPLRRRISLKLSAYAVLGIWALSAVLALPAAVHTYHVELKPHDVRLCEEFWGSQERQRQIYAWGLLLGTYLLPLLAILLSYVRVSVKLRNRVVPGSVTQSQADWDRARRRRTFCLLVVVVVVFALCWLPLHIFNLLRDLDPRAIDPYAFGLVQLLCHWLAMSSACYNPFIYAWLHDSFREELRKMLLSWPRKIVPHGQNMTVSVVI

T2: human PrRP receptor GPR10 (human, UniProt P49683 1-370)
T2 construct: whole, on cells; also called GPR10 human receptor transfected in CHO cells; human GPR10 receptor
T2 sequence (looked up): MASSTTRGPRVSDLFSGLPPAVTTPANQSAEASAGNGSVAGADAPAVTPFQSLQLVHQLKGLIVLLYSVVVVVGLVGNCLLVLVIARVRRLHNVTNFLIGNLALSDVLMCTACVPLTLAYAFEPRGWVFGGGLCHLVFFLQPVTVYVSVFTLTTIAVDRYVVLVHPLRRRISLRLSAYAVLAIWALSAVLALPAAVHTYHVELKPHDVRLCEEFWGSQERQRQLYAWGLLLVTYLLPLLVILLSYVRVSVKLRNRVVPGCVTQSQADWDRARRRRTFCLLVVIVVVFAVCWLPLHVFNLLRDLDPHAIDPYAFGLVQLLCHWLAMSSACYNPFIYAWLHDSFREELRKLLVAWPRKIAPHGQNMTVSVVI

B1: analog no. 32 (peptide)
peptide: Myristoyl-TPDINPAWYTGRGARPFGRF-NH2
SMILES: CCCCCCCCCCCCCC(=O)N[C@H](C(=O)N1CCC[C@H]1C(=O)N[C@@H](CC(=O)O)C(=O)N[C@H](C(=O)N[C@@H](CC(N)=O)C(=O)N1CCC[C@H]1C(=O)N[C@@H](C)C(=O)N[C@@H](Cc1c[nH]c2ccccc12)C(=O)N[C@@H](Cc1ccc(O)cc1)C(=O)N[C@H](C(=O)NCC(=O)N[C@@H](CCCNC(=N)N)C(=O)NCC(=O)N[C@@H](C)C(=O)N[C@@H](CCCNC(=N)N)C(=O)N1CCC[C@H]1C(=O)N[C@@H](Cc1ccccc1)C(=O)NCC(=O)N[C@@H](CCCNC(=N)N)C(=O)N[C@@H](Cc1ccccc1)C(N)=O)[C@@H](C)O)[C@@H](C)CC)[C@@H](C)O
B2: analog no. 1 (peptide)
peptide: Myristoyl-TPDINPAWYTGRGIRPVGRF-NH2
SMILES: CCCCCCCCCCCCCC(=O)N[C@H](C(=O)N1CCC[C@H]1C(=O)N[C@@H](CC(=O)O)C(=O)N[C@H](C(=O)N[C@@H](CC(N)=O)C(=O)N1CCC[C@H]1C(=O)N[C@@H](C)C(=O)N[C@@H](Cc1c[nH]c2ccccc12)C(=O)N[C@@H](Cc1ccc(O)cc1)C(=O)N[C@H](C(=O)NCC(=O)N[C@@H](CCCNC(=N)N)C(=O)NCC(=O)N[C@H](C(=O)N[C@@H](CCCNC(=N)N)C(=O)N1CCC[C@H]1C(=O)N[C@H](C(=O)NCC(=O)N[C@@H](CCCNC(=N)N)C(=O)N[C@@H](Cc1ccccc1)C(N)=O)C(C)C)[C@@H](C)CC)[C@@H](C)O)[C@@H](C)CC)[C@@H](C)O
B3: analog no. 34 (peptide)
peptide: Myristoyl-TPDINPAWYASRPFRPVGRF-NH2
SMILES: CCCCCCCCCCCCCC(=O)N[C@H](C(=O)N1CCC[C@H]1C(=O)N[C@@H](CC(=O)O)C(=O)N[C@H](C(=O)N[C@@H](CC(N)=O)C(=O)N1CCC[C@H]1C(=O)N[C@@H](C)C(=O)N[C@@H](Cc1c[nH]c2ccccc12)C(=O)N[C@@H](Cc1ccc(O)cc1)C(=O)N[C@@H](C)C(=O)N[C@@H](CO)C(=O)N[C@@H](CCCNC(=N)N)C(=O)N1CCC[C@H]1C(=O)N[C@@H](Cc1ccccc1)C(=O)N[C@@H](CCCNC(=N)N)C(=O)N1CCC[C@H]1C(=O)N[C@H](C(=O)NCC(=O)N[C@@H](CCCNC(=N)N)C(=O)N[C@@H](Cc1ccccc1)C(N)=O)C(C)C)[C@@H](C)CC)[C@@H](C)O
B4: analog no. 29 (peptide)
peptide: TPDINPAWY[NMeA]SRGIRPVGRF-NH2
modifications: N-terminus assumed
SMILES: CC[C@H](C)[C@H](NC(=O)CNC(=O)[C@H](CCCNC(=N)N)NC(=O)[C@H](CO)NC(=O)[C@H](C)N(C)C(=O)[C@H](Cc1ccc(O)cc1)NC(=O)[C@H](Cc1c[nH]c2ccccc12)NC(=O)[C@H](C)NC(=O)[C@@H]1CCCN1C(=O)[C@H](CC(N)=O)NC(=O)[C@@H](NC(=O)[C@H](CC(=O)O)NC(=O)[C@@H]1CCCN1C(=O)[C@@H](N)[C@@H](C)O)[C@@H](C)CC)C(=O)N[C@@H](CCCNC(=N)N)C(=O)N1CCC[C@H]1C(=O)N[C@H](C(=O)NCC(=O)N[C@@H](CCCNC(=N)N)C(=O)N[C@@H](Cc1ccccc1)C(N)=O)C(C)C
B5: analog no. 30 (peptide)
peptide: Myristoyl-TPDINPAWY[NMeA]SRGIRPVGRF-NH2
SMILES: CCCCCCCCCCCCCC(=O)N[C@H](C(=O)N1CCC[C@H]1C(=O)N[C@@H](CC(=O)O)C(=O)N[C@H](C(=O)N[C@@H](CC(N)=O)C(=O)N1CCC[C@H]1C(=O)N[C@@H](C)C(=O)N[C@@H](Cc1c[nH]c2ccccc12)C(=O)N[C@@H](Cc1ccc(O)cc1)C(=O)N(C)[C@@H](C)C(=O)N[C@@H](CO)C(=O)N[C@@H](CCCNC(=N)N)C(=O)NCC(=O)N[C@H](C(=O)N[C@@H](CCCNC(=N)N)C(=O)N1CCC[C@H]1C(=O)N[C@H](C(=O)NCC(=O)N[C@@H](CCCNC(=N)N)C(=O)N[C@@H](Cc1ccccc1)C(N)=O)C(C)C)[C@@H](C)CC)[C@@H](C)CC)[C@@H](C)O
B6: analog no. 54 (peptide)
peptide: SRTHRHSMEIRTPDINPAWYASRGIRPVGRF
modifications: (N-palm)γ-E at the N-terminus (palmitoyl through gamma-glutamic acid); C-terminal amide
B7: analog no. 42 (peptide)
peptide: Myristoyl-SRTHRHSMEIRTPDINPAWYASRGIRPVGRF-NH2
SMILES: CCCCCCCCCCCCCC(=O)N[C@@H](CO)C(=O)N[C@@H](CCCNC(=N)N)C(=O)N[C@H](C(=O)N[C@@H](Cc1c[nH]cn1)C(=O)N[C@@H](CCCNC(=N)N)C(=O)N[C@@H](Cc1c[nH]cn1)C(=O)N[C@@H](CO)C(=O)N[C@@H](CCSC)C(=O)N[C@@H](CCC(=O)O)C(=O)N[C@H](C(=O)N[C@@H](CCCNC(=N)N)C(=O)N[C@H](C(=O)N1CCC[C@H]1C(=O)N[C@@H](CC(=O)O)C(=O)N[C@H](C(=O)N[C@@H](CC(N)=O)C(=O)N1CCC[C@H]1C(=O)N[C@@H](C)C(=O)N[C@@H](Cc1c[nH]c2ccccc12)C(=O)N[C@@H](Cc1ccc(O)cc1)C(=O)N[C@@H](C)C(=O)N[C@@H](CO)C(=O)N[C@@H](CCCNC(=N)N)C(=O)NCC(=O)N[C@H](C(=O)N[C@@H](CCCNC(=N)N)C(=O)N1CCC[C@H]1C(=O)N[C@H](C(=O)NCC(=O)N[C@@H](CCCNC(=N)N)C(=O)N[C@@H](Cc1ccccc1)C(N)=O)C(C)C)[C@@H](C)CC)[C@@H](C)CC)[C@@H](C)O)[C@@H](C)CC)[C@@H](C)O

What was measured:
[1] = target: T1, rat PrRP receptor in RC-4B/C cells; experiment: competition with 125I-rat PrRP31, RC-4B/C cells
Experimental: The rat pituitary cell line RC-4B/C (ATCC, Manassas, USA) was grown on 24-well plates which had their bottom coated with polyethyleneimine. The cells were grown to the optimal density of 300-450 thousand cells per well.
(§1) Plates were incubated for 60 minutes at room temperature. After incubation, the cells were solubilized in 0.1 mol/l solution of NaOH, and the radioactivity bound to the cells was counted using a γ-counter. The experiments were performed in duplicate, and repeated at least three times.

[2] = target: T2, human PrRP receptor GPR10; experiment: competition with 125I-human PrRP31, CHO cells with human GPR10
Experimental: CHO cells transfected with human PrRP receptor GPR10 (Perkin Elmer, USA) were grown on 24-well plates coated with polyethyleneimine. […] The following agents were used for the experiment: binding buffer (25 mmol.1⁻¹ Tris, pH 7.4; 118 mmol.1⁻¹ NaCl, 10 mmol.1⁻¹ MgCl₂, 1 mmol.1⁻¹ CaCl₂, 5.5 mmol.1⁻¹ glucose, 0.5 mg/ml BSA), unlabeled analogs of PrRP (i.e. the analog being tested) at a final concentration between 10⁻¹¹ to 10⁻⁴ mol.1⁻¹, and radiolabeled human ¹²⁵1-PrRP31 at a final concentration of 5×10⁻¹¹ mol.1⁻¹.
as §1

Row | Binder | % of PrRP31 [1] [%] | Ki [1] [nM] | % of PrRP31 [2] [%] | Ki [2] [nM]
1 | TPDINPAWYTGRGIRPVGRF-NH2 (synthetic peptide) [Rat PrRP20] | 143 | 3.44 | 70 | 5.56
2 | B1 | 68 | 7.21 | 46 | 8.47
3 | B2 | 632 | 0.78 | 133 | 2.93
4 | TPDINPAWYTGRGARPFGRF-NH2 [analog no. 31] | 0.8 | 655 | 0.7 | 583
5 | B3 | 587 | 0.84 | 671 | 0.58
6 | TPDINPAWYASRPFRPVGRF-NH2 [analog no. 33] | 230 | 2.14 | 225 | 1.73
7 | B4 | 10 | 49.4 | 45 | 8.72
8 | B5 | 1070 | 0.46 | 185 | 2.1
9 | SRTHRHSMEIK([γGlu-Palmitoyl])TPDINPAWYASRGIRPVGRF-NH2 (also called compound 52) [analog no. 52] | 57 | 4.23 | 65 | 5.95
10 | SRTHRHSMEIRTPDINPAWYASRGIRPVGRF-NH2 (synthetic peptide) [Human PrRP31] | 207 | 2.38 | 86 | 
11 | SETHRHSMEIKTPDINPAWYASRGIRPVGRF (K(N-POE(N-palm)) at residue 11; C-terminal amide) [analog no. 58] | 575 | 0.41 | 103 | 3.79
12 | B6 | 119 | 0.5 | 57 | 
13 | B7 | 1030 | 0.48 | 83 | 
14 | Palmitoyl-SRTHRHSMEIRTPDINPAWYASRGIRPVGRF-NH2 (also called analog no; 43; compound 43) [palm-PrRP31 (analog 43)] | 519 | 0.95 | 90 | 
